Reference: PMC10140725 (Scientific Reports, 2023)

Assays:
[1] = molecular target: hemagglutinin (HA) of H1N1 influenza A strain A/Denver/57/1957, mature HA1/HA2 (Influenza A virus H1N1, strain A/Denver/57/1957); assay: crystal structure
[2] = molecular target: hemagglutinin (HA) of H1N1 influenza A strain A/Fort Monmouth/1/1947, mature HA1/HA2 trimer (Influenza A virus H1N1, strain A/Fort Monmouth/1/1947); assay: crystal structure
[3] = molecular target: hemagglutinin (HA) of H1N1 influenza A strain A/Hickox/JY2/1940, mature HA1/HA2 trimer (Influenza A virus H1N1, strain A/Hickox/JY2/1940) (UniProt Q0HD60); assay: crystal structure
[4] = molecular target: hemagglutinin (HA) of H1N1 influenza A strain A/Melbourne/1/1946, mature HA1/HA2 trimer (Influenza A virus H1N1, strain A/Melbourne/1/1946); assay: crystal structure
[5] = molecular target: hemagglutinin (HA) of H1N1 influenza A strain A/Netherlands/002P1/1951, mature HA1/HA2 trimer (Influenza A virus H1N1, strain A/Netherlands/002P1/1951); assay: crystal structure
[6] = molecular target: hemagglutinin (HA) of H1N1 influenza A strain A/Iowa/1943 (Influenza A virus H1N1, A/Iowa/1943 …, UniProt A4GCK8, strain); assay: SEC; conditions: both partners purified

Molecule: hemagglutinin (HA) of H1N1 influenza A strain A/Denver/57/1957, mature HA1/HA2 (natural protein)
- stoichiometry N [1]: 3

Molecule: hemagglutinin (HA) of H1N1 influenza A strain A/Fort Monmouth/1/1947, mature HA1/HA2 trimer (natural protein)
- stoichiometry N [2]: 3

Molecule: hemagglutinin (HA) of H1N1 influenza A strain A/Hickox/JY2/1940, mature HA1/HA2 trimer (from UniProt Q0HD60) (natural protein)
- stoichiometry N [3]: 3

Molecule: hemagglutinin (HA) of H1N1 influenza A strain A/Melbourne/1/1946, mature HA1/HA2 trimer (natural protein)
- stoichiometry N [4]: 3

Molecule: hemagglutinin (HA) of H1N1 influenza A strain A/Netherlands/002P1/1951, mature HA1/HA2 trimer (natural protein)
- stoichiometry N [5]: 3

B1: anti-influenza head-binding antibody C05 fragment antigen binding (Fab) (Fab, V domains shown)
VH: EVQLQESGGGLVQPGESLRLSCVGSGSSFGESTLSYYAVSWVRQAPGKGLEWLSIINAGGGDIDYADSVEGRFTISRDNSKETLYLQMTNLRVEDTGVYYCAKHMSMQQVVSAGWERADLVGDAFDVWGQGTMVTVSS
VL: DIQLTQSPSSLSASVGDRVTLTCQASQDIRKFLNWYQQKPGKGPKLLIYDASNLQRGVPSRFSGGGSGTDFTLIISSLQPEDVGTYYCQQYDGLPFTFGGGTKVVIK
notes: also called C05 Fab; C05 antibody; not shown: His6, C-terminal, kept
- binding result [6]: binds
